This passage reports loss of anti-Fab signal on Nu-DUL-1 cells (flow cytometry) after IdeS treatment and membrane bound IgG on Nu-DUL-1 cells one hour after IdeS treatment and wash (flow cytometry, anti-Fab) results from patent US20210260173A1.

The target in this test is IgG-type of BCR (membrane-bound IgG) on Nu-DUL-1 cells. The test can be described thus: cell-based or functional assay.

As for “Immunoglobulin G-degrading enzyme of S. pyogenes (IdeS)”, the loss of anti-Fab signal on Nu-DUL-1 cells (flow cytometry) after IdeS treatment was above 4 µg/mL; the membrane bound IgG on Nu-DUL-1 cells one hour after IdeS treatment and wash (flow cytometry, anti-Fab) was above 4 µg/mL.
